# Results as given in the supplement of paper PMC5998384.
# Legend:
# HeLa Kyoto [1] = assay: solubility in G1/S (NP-40 vs SDS abundance) (log2 ratio); higher = more soluble; details: cell cycle stage: G1/S
# HeLa Kyoto [2] = assay: melting temperature (median over replicates), in situ; higher = more thermally stable
# HeLa Kyoto [3] = assay: solubility change mitosis vs G1/S (difference of NP-40 vs SDS log2 ratios) (log2 ratio difference); higher = more soluble in mitosis
# HeLa Kyoto [4] = assay: thermal stability score vs G1/S (z-score of summed log2 fold changes over temperatures); higher = more thermally stable than in G1/S
# [5] = cell cycle stage: early G1 (4.5 h after nocodazole release)
# 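For melting temperature (median over replicates), in situ in this document: HeLa Kyoto cells synchronized by double thymidine or nocodazole block, proteins quantified by TMT10plex mass spectrometry, three independent biological replicates.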
# 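For solubility change mitosis vs G1/S (difference of NP-40 vs SDS log2 ratios) in this document: synchronized HeLa Kyoto cells (double thymidine block for G1/S, nocodazole release for mitosis), protein amounts in NP-40 versus SDS lysates quantified by mass spectrometry, three biological replicates.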
# 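For solubility in G1/S (NP-40 vs SDS abundance) in this document: HeLa Kyoto cells arrested at G1/S by double thymidine block, proteins quantified by TMT10plex mass spectrometry in mild NP-40 versus SDS extracts, three biological replicates.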
# 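For thermal stability score vs G1/S (z-score of summed log2 fold changes over temperatures) in this document: synchronized HeLa Kyoto cells, proteins quantified by TMT10plex mass spectrometry, three biological replicates, mitosis taken 0.5 h after nocodazole release, G1/S directly after double thymidine block.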
Sequence,solubility in G1/S (log2) (HeLa Kyoto [1]),melting temperature (HeLa Kyoto [2]; cell cycle stage: G1/S) [°C],melting temperature (HeLa Kyoto [2]; cell cycle stage: mitosis) [°C],solubility change mitosis (log2) (HeLa Kyoto [3]),thermal stability score (HeLa Kyoto [4]; [5]),thermal stability score (HeLa Kyoto [4]; cell cycle stage: mitosis)
MSDTRRRVKVYTLNEDRQWDDRGTGHVSSTYVEELKGMSLLVRAESDGSLLLESKINPNTAYQKQQDTLIVWSEAENYDLALSFQEKAGCDEIWEKICQVQGKDPSVEVTQDLIDESEEERFEEMPETSHLIDLPTCELNKLEEIADLVTSVLSSPIRREKLALALENEGYIKKLLQLFQACENLENTEGLHHLYEIIRGILFLNKATLFEVMFSDECIMDVVGCLEYDPALAQPKRHREFLTKTAKFKEVIPITDSELRQKIHQTYRVQYIQDIILPTPSVFEENFLSTLTSFIFFNKVEIVSMLQEDEKFLSEVFAQLTDEATDDDKRRELVNFFKEFCAFSQTLQPQNRDAFFKTLAKLGILPALEIVMGMDDLQVRSAATDIFSYLVEFSPSMVREFVMQEAQQSDDDILLINVVIEQMICDTDPELGGAVQLMGLLRTLIDPENMLATTNKTEKSEFLNFFYNHCMHVLTAPLLTNTSEDKCEKDFFLKHYRYSWSFICTPSHSHSHSTPSSSISQDNIVGSNKNNTICPDNYQTAQLLALILELLTFCVEHHTYHIKNYIMNKDLLRRVLVLMNSKHTFLALCALRFMRRIIGLKDEFYNRYITKGNLFEPVINALLDNGTRYNLLNSAVIELFEFIRVEDIKSLTAHIVENFYKALESIEYVQTFKGLKTKYEQEKDRQNQKLNSVPSILRSNRFRRDAKALEEDEEMWFNEDEEEEGKAVVAPVEKPKPEDDFPDNYEKFMETKKAKESEDKENLPKRTSPGGFKFTFSHSASAANGTNSKSVVAQIPPATSNGSSSKTTNLPTSVTATKGSLVGLVDYPDDEEEDEEEESSPRKRPRLGS [PPP4R3B],0.0425,49.6,49.5,-0.181,1.17,1.76
MSDTSESGAGLTRFQAEASEKDSSSMMQTLLTVTQNVEVPETPKASKALEVSEDVKVSKASGVSKATEVSKTPEAREAPATQASSTTQLTDTQVLAAENKSLAADTKKQNADPQAVTMPATETKKVSHVADTKVNTKAQETEAAPSQAPADEPEPESAAAQSQENQDTRPKVKAKKARKVKHLDGEEDGSSDQSQASGTTGGRRVSKALMASMARRASRGPIAFWARRASRTRLAAWARRALLSLRSPKARRGKARRRAAKLQSSQEPEAPPPRDVALLQGRANDLVKYLLAKDQTKIPIKRSDMLKDIIKEYTDVYPEIIERAGYSLEKVFGIQLKEIDKNDHLYILLSTLEPTDAGILGTTKDSPKLGLLMVLLSIIFMNGNRSSEAVIWEVLRKLGLRPGIHHSLFGDVKKLITDEFVKQKYLDYARVPNSNPPEYEFFWGLRSYYETSKMKVLKFACKVQKKDPKEWAAQYREAMEADLKAAAEAAAEAKARAEIRARMGIGLGSENAAGPCNWDEADIGPWAKARIQAGAEAKAKAQESGSASTGASTSTNNSASASASTSGGFSAGASLTATLTFGLFAGLGGAGASTSGSSGACGFSYK [MAGED2],0.259,46.9,48.4,-0.157,2.46,4.54
MSDYSTGGPPPGPPPPAGGGGGAGGAGGGPPPGPPGAGDRGGGGPGGGGPGGGSAGGPSQPPGGGGPGIRKDAFADAVQRARQIAAKIGGDAATTVNNSTPDFGFGGQKRQLEDGDQPESKKLASQGDSISSQLGPIHPPPRTSMTEEYRVPDGMVGLIIGRGGEQINKIQQDSGCKVQISPDSGGLPERSVSLTGAPESVQKAKMMLDDIVSRGRGGPPGQFHDNANGGQNGTVQEIMIPAGKAGLVIGKGGETIKQLQERAGVKMILIQDGSQNTNVDKPLRIIGDPYKVQQACEMVMDILRERDQGGFGDRNEYGSRIGGGIDVPVPRHSVGVVIGRSGEMIKKIQNDAGVRIQFKQDDGTGPEKIAHIMGPPDRCEHAARIINDLLQSLRSGPPGPPGGPGMPPGGRGRGRGQGNWGPPGGEMTFSIPTHKCGLVIGRGGENVKAINQQTGAFVEISRQLPPNGDPNFKLFIIRGSPQQIDHAKQLIEEKIEGPLCPVGPGPGGPGPAGPMGPFNPGPFNQGPPGAPPHAGGPPPHQYPPQGWGNTYPQWQPPAPHDPSKAAAAAADPNAAWAAYYSHYYQQPPGPVPGPAPAPAAPPAQGEPPQPPPTGQSDYTKAWEEYYKKIGQQPQQPGAPPQQDYTKAWEEYYKKQAQVATGGGPGAPPGSQPDYSAAWAEYYRQQAAYYGQTPGPGGPQPPPTQQGQQQAQ [KHSRP],0.523,55.4,55.7,0.0471,1.92,1.64
MSEADGLRQRRPLRPQVVTDDDGQAPEAKDGSSFSGRVFRVTFLMLAVSLTVPLLGAMMLLESPIDPQPLSFKEPPLLLGVLHPNTKLRQAERLFENQLVGPESIAHIGDVMFTGTADGRVVKLENGEIETIARFGSGPCKTRDDEPVCGRPLGIRAGPNGTLFVADAYKGLFEVNPWKREVKLLLSSETPIEGKNMSFVNDLTVTQDGRKIYFTDSSSKWQRRDYLLLVMEGTDDGRLLEYDTVTREVKVLLDQLRFPNGVQLSPAEDFVLVAETTMARIRRVYVSGLMKGGADLFVENMPGFPDNIRPSSSGGYWVGMSTIRPNPGFSMLDFLSERPWIKRMIFKLFSQETVMKFVPRYSLVLELSDSGAFRRSLHDPDGLVATYISEVHEHDGHLYLGSFRSPFLCRLSLQAV [APMAP],0.164,56.2,57.2,-0.116,0.325,0.806
MSEDLAKQLASYKAQLQQVEAALSGNGENEDLLKLKKDLQEVIELTKDLLSTQPSETLASSDSFASTQPTHSWKVGDKCMAVWSEDGQCYEAEIEEIDEENGTAAITFAGYGNAEVTPLLNLKPVEEGRKAKEDSGNKPMSKKEMIAQQREYKKKKALKKAQRIKELEQEREDQKVKWQQFNNRAYSKNKKGQVKRSIFASPESVTGKVGVGTCGIADKPMTQYQDTSKYNVRHLMPQ [SMNDC1],0.271,57.7,55.9,0.405,-2.66,-6.93
MSELEQLRQEAEQLRNQIQDARKACNDATLVQITSNMDSVGRIQMRTRRTLRGHLAKIYAMHWGYDSRLLVSASQDGKLIIWDSYTTNKMHAIPLRSSWVMTCAYAPSGNYVACGGLDNICSIYNLKTREGNVRVSRELPGHTGYLSCCRFLDDSQIVTSSGDTTCALWDIETAQQTTTFTGHSGDVMSLSLSPDMRTFVSGACDASSKLWDIRDGMCRQSFTGHVSDINAVSFFPNGYAFATGSDDATCRLFDLRADQELLLYSHDNIICGITSVAFSKSGRLLLAGYDDFNCNVWDTLKGDRAGVLAGHDNRVSCLGVTDDGMAVATGSWDSFLRIWN [GNB4],-0.287,55.6,56.7,-0.13,-1.5,-0.567
MSERCCSRYSSGASIGCTPTSTQAKMVSKRIAQETFDAAVRENIEEFAMGPEEAVKEAVEQFESQGVDLSNIVKTAPKVSADGSQEPTHDILQMLSDLQESVASSRPQEVSAYLTRFCDQCKQDKACRFLAAQKGAYPIIFTAWKLATAGDQGLLLQSLNALSVLTDGQPDLLDAQGLQLLVATLTQNADEADLTCSGIRCVRHACLKHEQNRQDLVKAGVLPLLTGAITHHGHHTDVVREACWALRVMTFDDDIRVPFGHAHNHAKMIVQENKGLKVLIEATKAFLDNPGILSELCGTLSRLAIRNEFCQEVVDLGGLSILVSLLADCNDHQMRDQSGVQELVKQVLSTLRAIAGNDDVKDAIVRAGGTESIVAAMTQHLTSPQVCEQSCAALCFLALRKPDNSRIIVEGGGAVAALQAMKAHPQKAGVQKQACMLIRNLVAHGQAFSKPILDLGAEALIMQARSAHRDCEDVAKAALRDLGCHVELRELWTGQRGNLAP [ARMC6],0.319,46.8,47,-0.0993,0.787,2.44
MSERKVLNKYYPPDFDPSKIPKLKLPKDRQYVVRLMAPFNMRCKTCGEYIYKGKKFNARKETVQNEVYLGLPIFRFYIKCTRCLAEITFKTDPENTDYTMEHGATRNFQAEKLLEEEEKRVQKEREDEELNNPMKVLENRTKDSKLEMEVLENLQELKDLNQRQAHVDFEAMLRQHRLSEEERRRQQQEEDEQETAALLEEARKRRLLEDSDSEDEAAPSPLQPALRPNPTAILDEAPKPKRKVEVWEQSVGSLGSRPPLSRLVVVKKAKADPDCSNGQPQAAPTPGAPQNRKEANPTPLTPGASSLSQLGAYLDSDDSNGSN [CCDC94],0.299,51.6,52.3,-0.0138,0.296,0.409
MSFFNFRKIFKLGSEKKKKQYEHVKRDLNPEDFWEIIGELGDGAFGKVYKAQNKETSVLAAAKVIDTKSEEELEDYMVEIDILASCDHPNIVKLLDAFYYENNLWILIEFCAGGAVDAVMLELERPLTESQIQVVCKQTLDALNYLHDNKIIHRDLKAGNILFTLDGDIKLADFGVSAKNTRTIQRRDSFIGTPYWMAPEVVMCETSKDRPYDYKADVWSLGITLIEMAEIEPPHHELNPMRVLLKIAKSEPPTLAQPSRWSSNFKDFLKKCLEKNVDARWTTSQLLQHPFVTVDSNKPIRELIAEAKAEVTEEVEDGKEEDEEEETENSLPIPASKRASSDLSIASSEEDKLSQNACILESVSEKTERSNSEDKLNSKILNEKPTTDEPEKAVEDINEHITDAQLEAMTELHDRTAVIKENEREKRPKLENLPDTEDQETVDINSVSEGKENNIMITLETNIEHNLKSEEEKDQEKQQMFENKLIKSEEIKDTILQTVDLVSQETGEKEANIQAVDSEVGLTKEDTQEKLGEDDKTQKDVISNTSDVIGTCEAADVAQKVDEDSAEDTQSNDGKEVVEVGQKLINKPMVGPEAGGTKEVPIKEIVEMNEIEEGKNKEQAINSSENIMDINEEPGTTEGEEITESSSTEEMEVRSVVADTDQKALGSEVQDASKVTTQIDKEKKEIPVSIKKEPEVTVVSQPTEPQPVLIPSININSDSGENKEEIGSLSKTETILPPESENPKENDNDSGTGSTADTSSIDLNLSISSFLSKTKDSGSISLQETRRQKKTLKKTRKFIVDGVEVSVTTSKIVTDSDSKTEELRFLRRQELRELRFLQKEEQRAQQQLNSKLQQQREQIFRRFEQEMMSKKRQYDQEIENLEKQQKQTIERLEQEHTNRLRDEAKRIKGEQEKELSKFQNMLKNRKKEVINEVEKAPKELRKELMKRRKEELAQSQHAQEQEFVQKQQQELDGSLKKIIQQQKAELANIERECLNNKQQLMRAREAAIWELEERHLQEKHQLLKQQLKDQYFMQRHQLLKRHEKETEQMQRYNQRLIEELKNRQTQERARLPKIQRSEAKTRMAMFKKSLRINSTATPDQDRDKIKQFAAQEEKRQKNERMAQHQKHENQMRDLQLQCEANVRELHQLQNEKCHLLVEHETQKLKELDEEHSQELKEWREKLRPRKKTLEEEFARKLQEQEVFFKMTGESECLNPSTQSRISKFYPIPSLHSTGS,0.0156,50.2,49.9,-0.139,-0.208,0.991
MSFICGLQSAARNHVFFRFNSLSNWRKCNTLASTSRGCHQVQVNHIVNKYQGLGVNQCDRWSFLPGNFHFYSTFNNKRTGGLSSTKSKEIWRITSKCTVWNDAFSRQLLIKEVTAVPSLSVLHPLSPASIRAIRNFHTSPRFQAAPVPLLLMILKPVQKLFAIIVGRGIRKWWQALPPNKKEVVKENIRKNKWKLFLGLSSFGLLFVVFYFTHLEVSPITGRSKLLLLGKEQFRLLSELEYEAWMEEFKNDMLTEKDARYLAVKEVLCHLIECNKDVPGISQINWVIHVVDSPIINAFVLPNGQMFVFTGFLNSVTDIHQLSFLLGHEIAHAVLGHAAEKAGMVHLLDFLGMIFLTMIWAICPRDSLALLCQWIQSKLQEYMFNRPYSRKLEAEADKIGLLLAAKACADIRASSVFWQQMEFVDSLHGQPKMPEWLSTHPSHGNRVEYLDRLIPQALKIREMCNCPPLSNPDPRLLFKLSTKHFLEESEKEDLNITKKQKMDTLPIQKQEQIPLTYIVEKRTGS [OMA1],-0.436,54.1,54.7,-0.0922,-1.79,-1.54
MSFLLPKLTSKKEVDQAIKSTAEKVLVLRFGRDEDPVCLQLDDILSKTSSDLSKMAAIYLVDVDQTAVYTQYFDISYIPSTVFFFNGQHMKVDYGSPDHTKFVGSFKTKQDFIDLIEVIYRGAMRGKLIVQSPIDPKNIPKYDLLYQDI [TXNL4B],0.0975,51,51.8,0.00266,0.0365,1.15
